Experimental data as given in patent publication US20220401524A1.

Experiments:
[1] = molecular target: complement C1q (human) (UniProt P02745); experiment: cell-based or functional assay
[2] = molecular target: complement C1q (human) (UniProt P02745); experiment: flow cytometry, vWF (10 µg/ml) bound to C1q immobilized on cholesterol crystals, mean of n=5
[3] = molecular target: complement C1q (human) (UniProt P02745); experiment: flow cytometry, vWF on cholesterol crystals with C1q against crystals without C1q

UniProt P02745, sequence (P02745 23-245, chain 1 of 3): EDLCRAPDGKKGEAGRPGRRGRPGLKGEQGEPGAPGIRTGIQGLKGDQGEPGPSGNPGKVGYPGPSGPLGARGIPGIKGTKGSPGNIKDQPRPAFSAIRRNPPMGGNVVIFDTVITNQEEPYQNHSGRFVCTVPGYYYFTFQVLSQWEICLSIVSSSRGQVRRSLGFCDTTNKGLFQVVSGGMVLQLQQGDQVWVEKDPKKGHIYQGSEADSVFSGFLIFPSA
UniProt P02745, sequence (chain, as listed by the source, chain 2 of 3): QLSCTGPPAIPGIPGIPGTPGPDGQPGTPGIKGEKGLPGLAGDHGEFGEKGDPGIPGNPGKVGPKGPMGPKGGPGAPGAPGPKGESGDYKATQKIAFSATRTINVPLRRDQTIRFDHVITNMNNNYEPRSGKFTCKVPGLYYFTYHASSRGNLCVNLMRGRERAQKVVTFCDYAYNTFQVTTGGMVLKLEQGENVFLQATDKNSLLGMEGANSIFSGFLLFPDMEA
UniProt P02745, sequence (chain, as listed by the source, chain 3 of 3): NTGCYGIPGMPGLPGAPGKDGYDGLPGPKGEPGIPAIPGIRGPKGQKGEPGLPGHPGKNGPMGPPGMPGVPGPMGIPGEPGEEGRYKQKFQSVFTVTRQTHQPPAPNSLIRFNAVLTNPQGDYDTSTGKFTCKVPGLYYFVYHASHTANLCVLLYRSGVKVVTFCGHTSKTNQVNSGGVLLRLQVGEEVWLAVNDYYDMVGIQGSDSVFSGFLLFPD

## recombinant von Willebrand factor (from UniProt P04275 764-2813) (ligand)
[1]
  caspase-1 activity of HMDMs (% CD11c+ cells in FLICA+ gate): 9.37%
  early phagocytosis of pHrodo-dyed CC complexes by HMDMs (30 min, % CD11c+ cells in pHrodo Red Ester+ gate): 54.5%
  late phagocytosis of CC complexes by HMDMs (18 hr, % CD11c+ cells in SSC high gate): 13.7%
[2]
  gMFI: 134000 gMFI
[3]
  fold gMFI against CC without C1q: 67 fold
